From patent publication US9611295B2, “Treatment of IL-17 mediated disease by blocking SEFIR-SEFIR interactions” (THE CLEVELAND CLINIC FOUNDATION, priority 2011, dated 2017)

Target: T1, Act1-IL-17RA interaction (Homo sapiens, UniProt Q96F46)
T1 construct: expressed in transfected cells; host or cells: HeLa
T1 sequence (Q96F46 33-866): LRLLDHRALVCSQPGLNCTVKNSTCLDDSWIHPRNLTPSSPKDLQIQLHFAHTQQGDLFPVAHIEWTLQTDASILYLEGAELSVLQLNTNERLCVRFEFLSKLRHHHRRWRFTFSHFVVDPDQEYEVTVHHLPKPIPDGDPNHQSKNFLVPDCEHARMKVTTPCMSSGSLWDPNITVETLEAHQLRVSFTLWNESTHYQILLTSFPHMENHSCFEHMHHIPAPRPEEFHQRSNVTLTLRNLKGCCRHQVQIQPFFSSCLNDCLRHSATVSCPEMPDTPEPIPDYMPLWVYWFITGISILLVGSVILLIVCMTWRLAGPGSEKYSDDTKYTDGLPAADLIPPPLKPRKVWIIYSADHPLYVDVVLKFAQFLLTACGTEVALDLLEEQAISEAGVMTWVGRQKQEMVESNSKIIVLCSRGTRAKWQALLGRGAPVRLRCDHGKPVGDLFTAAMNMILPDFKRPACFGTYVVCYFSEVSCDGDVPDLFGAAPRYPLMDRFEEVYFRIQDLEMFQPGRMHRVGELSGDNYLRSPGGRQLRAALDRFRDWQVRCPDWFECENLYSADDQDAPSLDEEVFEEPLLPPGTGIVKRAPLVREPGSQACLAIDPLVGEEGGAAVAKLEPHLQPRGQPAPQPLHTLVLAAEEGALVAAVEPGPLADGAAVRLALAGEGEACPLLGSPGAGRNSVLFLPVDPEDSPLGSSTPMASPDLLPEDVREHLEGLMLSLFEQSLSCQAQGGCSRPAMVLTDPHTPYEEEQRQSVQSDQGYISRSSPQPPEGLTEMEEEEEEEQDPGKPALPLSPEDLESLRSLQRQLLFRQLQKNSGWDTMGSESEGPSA
Assay: Co-immunoprecipitation of Act1 and IL-17RA in transfected HeLa cells
Type: cell-based, mouse Act1, human IL-17RA
Settings: peptides 200 μM, 24 hours
Procedure: FIG. 4 provides data showing that a cell-permeable CC′ loop decoy peptide disrupts the interaction between Act1 and IL-17RA and inhibits IL-17R and IL-25R signaling. FIG. 4A provides sequences of Antennapedia homeodomain (Antp) (SEQ ID NO: 11)and decoy peptides (SEQ ID NOS 23-25 and 17, respectively, in order of appearance) with the Antp sequence underlined. FIG. 4B provides flow cytometry results based on experiments in which MEFs expressing IL-17RB were incubated for 2 or 24 hours with the indicated FITC-tagged peptides (200 μM) and were then analyzed by flow cytometry. […] The percentages of FITC-positive cells in the treated samples are shown. […] FIG. 4D provides Western blot results of experiments in which MEFs expressing IL-17RB were incubated with the indicated peptides (200 μM) for 24 hours after which they were treated with IL-17 or IL-25 and then analyzed by Western blotting with the indicated antibodies. […] The abundances of Cxcl1 and Il13 mRNAs were then measured by real-time RT-PCR. […]
Decoy peptides are based on surface-exposed regions of the primary sequence of a protein to mimic a putative interaction interface. […] These decoy peptides were also tagged at their C-termini with fluorescein isothiocyanate (FITC) to enable their cell-penetrating efficiency to be evaluated by flow cytometric sanalysis. […]

With “DRQIKIWFQNRRMKWKKLDEDEHGLHTKY [CC′ loop decoy peptide]” the “inhibition of the Act1-IL-17RA interaction (co-IP)” value was “more efficiently inhibited”.
